Measured values from patent publication US20250277030A1 (Zymeworks, published 2025).
Read-outs that look alike come from different tables or passages of the source.

Experiments:
[1] = target: T1, human sodium-dependent phosphate transporter 2B (NaPi2b) (human, UniProt O95436 1-690); assay: cell-based or functional assay
T1 sequence: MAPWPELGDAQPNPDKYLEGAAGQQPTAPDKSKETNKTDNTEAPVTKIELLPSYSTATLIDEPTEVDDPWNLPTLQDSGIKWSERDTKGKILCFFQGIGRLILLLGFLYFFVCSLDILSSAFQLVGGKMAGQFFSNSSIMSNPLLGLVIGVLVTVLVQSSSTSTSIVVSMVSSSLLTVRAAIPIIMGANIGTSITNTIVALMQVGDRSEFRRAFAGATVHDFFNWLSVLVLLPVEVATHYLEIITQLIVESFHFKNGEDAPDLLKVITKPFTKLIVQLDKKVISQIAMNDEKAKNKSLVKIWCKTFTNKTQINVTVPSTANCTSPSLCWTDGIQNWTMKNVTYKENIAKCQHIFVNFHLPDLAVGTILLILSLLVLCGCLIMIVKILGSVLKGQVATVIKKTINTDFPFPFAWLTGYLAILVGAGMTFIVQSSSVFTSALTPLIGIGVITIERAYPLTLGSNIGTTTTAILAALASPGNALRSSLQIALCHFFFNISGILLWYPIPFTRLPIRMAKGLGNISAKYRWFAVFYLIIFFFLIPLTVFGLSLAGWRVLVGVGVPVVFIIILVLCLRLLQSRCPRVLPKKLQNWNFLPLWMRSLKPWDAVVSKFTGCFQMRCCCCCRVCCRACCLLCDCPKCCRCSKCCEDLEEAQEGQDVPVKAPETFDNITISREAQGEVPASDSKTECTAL

[2] = target: T1, human sodium-dependent phosphate …; assay: flow cytometry, IGROV-1 cells (endogenous NaPi2b); apparent Kd
Protocol: (§1) Briefly, HEK293-6e cells were transfected for ˜24 hours to transiently express human NaPi2b, cynomolgus or mouse NaPi2b, at 1 μg of DNA per 1 million cells. Following transfection, 50,000 cells per well were seeded in V-bottom 96-well plates and incubated with 200 nM of primary antibody for 18-24 hours at 4° C. to prevent internalization. Post-incubation, cells were washed and stained with anti-Human IgG Fc AF647 conjugate (Jackson Immuno Research Labs, West Grove, PA, Cat. No. 109-605-098, Lot. No. 124868) at 4° C. for 1 hour. Following staining and washing, fluorescence was detected by flow cytometry on BD LSRFortessa™ Cell Analyzer (BD Biosciences, Franklin Lake, NJ) with 10,000 minimum events collected per well. The AF647/APC-A GeoMean (fluorescence signal geometric mean, proportional to anti-Human AF647 binding) was calculated for the live singlet cell population for each primary antibody using FlowJo™ v8 software (BD Biosciences, Franklin Lake, NJ). The Bmax and Kd of each primary antibody were calculated using GraphPad Prism Version 9 (GraphPad Software, San Diego, CA)
The ability of ADCs to bind to cells expressing NaPi2b was assessed. […] Binding to endogenous high NaPi2b-expressing cell lines IGROV-1 and HCC-78 was assessed by flow cytometry according to methods described in Example 5.

[3] = target: T1, human sodium-dependent phosphate …; assay: as above; remark: listed apart in the source
Protocol: Briefly, cells were seeded at 50,000 cells/well in conical-bottom 96-well plates and treated with test antibody for 24 hours at 4° C. to prevent internalization. […] Following incubation, cells were washed and stained with anti-Human IgG Fc AF647 conjugate (Jackson Immuno Research Labs, West Grove, PA; Cat. No. 109-605-098) at 4° C. for 30 min. Following incubation and washing, fluorescence was detected by flow cytometry on a BD LSRFortessa™ Cell Analyzer (BD Biosciences, Franklin Lake, NJ) with 1,000 minimum events collected per well. The AF647/APC-A GeoMean (fluorescence signal geometric mean, proportional to anti-Human AF647 binding) was calculated for the live cell population using FlowJo™ Version 10.8.1 (BD Biosciences, Franklin Lake, NJ) and plotted for each test antibody using GraphPad Prism Version 9 (GraphPad Software, San Diego, CA).
The ability of the humanized antibody variants v38591 and v29456 to bind to NaPi2b expressed on cells was assessed on endogenous NaPi2b-expressing tumor cell lines IGROV-1 (ovarian adenocarcinoma) and TOV-21G (ovarian carcinoma) by flow cytometry.
Cellular binding was performed according to methods described in Example 13.

[4] = target: T1, human sodium-dependent phosphate …; assay: flow cytometry, IGROV-1 cells (endogenous NaPi2b), 24 h at 4 °C
Summary of the method: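 IGROV-1 cells were incubated with test antibody for 24 hours at 4° C to prevent internalization, then stained with anti-human IgG Fc AF647 for 30 min at 4° C. AF647 geometric mean fluorescence of live cells was measured by flow cytometry and plotted per antibody.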

cynomolgus monkey NaPi2b = target: T2, cynomolgus monkey NaPi2b (cynomolgus monkey, UniProt O95436 1-690 (human entry)); assay: flow cytometry, HEK293-6e cells transfected with cynomolgus NaPi2b; apparent Kd
T2 construct: Transiently expressed on HEK293-6e cells; also called Cyno NaPi2b
T2 chain: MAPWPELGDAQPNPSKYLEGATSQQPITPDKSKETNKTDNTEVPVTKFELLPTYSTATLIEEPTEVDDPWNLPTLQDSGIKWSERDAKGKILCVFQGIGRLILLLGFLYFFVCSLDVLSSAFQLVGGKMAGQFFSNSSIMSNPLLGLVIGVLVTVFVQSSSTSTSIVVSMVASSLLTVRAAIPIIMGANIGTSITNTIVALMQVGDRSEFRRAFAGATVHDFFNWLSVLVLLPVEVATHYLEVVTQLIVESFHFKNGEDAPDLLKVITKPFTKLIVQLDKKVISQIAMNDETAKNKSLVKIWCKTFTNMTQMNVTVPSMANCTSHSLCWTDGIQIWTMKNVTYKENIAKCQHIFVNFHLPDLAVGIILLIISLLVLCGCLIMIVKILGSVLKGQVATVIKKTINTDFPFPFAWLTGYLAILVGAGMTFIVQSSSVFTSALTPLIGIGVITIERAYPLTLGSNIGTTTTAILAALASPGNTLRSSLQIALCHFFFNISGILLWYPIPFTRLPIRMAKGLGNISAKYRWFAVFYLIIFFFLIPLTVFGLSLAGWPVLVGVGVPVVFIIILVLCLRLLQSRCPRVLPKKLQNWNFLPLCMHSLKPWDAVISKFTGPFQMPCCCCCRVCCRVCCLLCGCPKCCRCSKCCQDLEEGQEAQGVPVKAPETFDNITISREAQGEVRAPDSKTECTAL
Protocol: The binding cross-reactivity of humanized antibody variant v29456 to human, cynomolgus and mouse NaPi2b was assessed by flow cytometry using HEK293-6e transfected cells.
as §1

Internalized Fluorescence Fold-Over Palivizumab, HCC-78, 5 hrs [1]: 25.3 fold
Internalized Fluorescence Fold-Over Palivizumab, HCC-78, 24 hrs [1]: 59.9 fold
Internalized Fluorescence Fold-Over Palivizumab, NCI-H441, 5 hrs [1]: 2.4 fold
Internalized Fluorescence Fold-Over Palivizumab, NCI-H441, 24 hrs [1]: 4 fold
Kd [2]: 0.65 nM
Kd [3]: 1.28 nM
Bmax (MFI) [4]: 40900 MFI
Kd (cynomolgus monkey NaPi2b): 3.2 nM
B1: v29456 humanized anti-NaPi2b antibody (H1L2) (antibody, human IgG1, kappa)
heavy: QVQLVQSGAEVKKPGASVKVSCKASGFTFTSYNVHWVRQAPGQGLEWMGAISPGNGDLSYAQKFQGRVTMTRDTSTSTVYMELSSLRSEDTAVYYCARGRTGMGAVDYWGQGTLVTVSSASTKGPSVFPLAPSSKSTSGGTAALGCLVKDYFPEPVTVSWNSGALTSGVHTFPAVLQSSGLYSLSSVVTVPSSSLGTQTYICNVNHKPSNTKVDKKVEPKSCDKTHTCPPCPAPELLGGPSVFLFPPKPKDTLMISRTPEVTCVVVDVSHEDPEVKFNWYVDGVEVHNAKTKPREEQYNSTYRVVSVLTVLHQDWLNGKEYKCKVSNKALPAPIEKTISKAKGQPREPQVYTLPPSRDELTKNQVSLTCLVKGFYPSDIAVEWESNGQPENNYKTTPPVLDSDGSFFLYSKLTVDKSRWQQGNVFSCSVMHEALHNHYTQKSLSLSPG
light: DVQMTQSPSSLSASVGDRVTITCRASQDVYSYLNWYQQKPGKAVKLLIYYTSRLQSGVPSRFSGSGSGTDYTLTISSLQPEDFATYYCQQYNIFPWTFGQGTKLEIKRTVAAPSVFIFPPSDEQLKSGTASVVCLLNNFYPREAKVQWKVDNALQSGNSQESVTEQDSKDSTYSLSSTLTLSKADYEKHKVYACEVTHQGLSSPVTKSFNRGEC
